Experimental data from US20140087995A1 (published 2014).
Changes are numbered by the printed parent chain. Numbered stars: 1 amine (or outer) side, 2 acyl side, 3 side chain; on linkers, the order of the positions; unused ones are H or OH. Bridge positions count the residues as written; N and C are the ends. * marks the point of attachment. C20 diacid = O=C(O)CCCCCCCCCCCCCCCCCCC(=O)*; γGlu = O=C(O)[C@H](CCC(=O)[*:2])N[*:1]; AEEA = NCCOCCOCC(=O)O

T1: human amylin receptor (amylin 3(a) receptor: human calcitonin receptor with RAMP-3) (human, UniProt P30988 25-474; O60896 24-148)
T1 construct: whole, on cells; also called hAmylin-R; hAmylinR
T1 sequence (looked up) 1: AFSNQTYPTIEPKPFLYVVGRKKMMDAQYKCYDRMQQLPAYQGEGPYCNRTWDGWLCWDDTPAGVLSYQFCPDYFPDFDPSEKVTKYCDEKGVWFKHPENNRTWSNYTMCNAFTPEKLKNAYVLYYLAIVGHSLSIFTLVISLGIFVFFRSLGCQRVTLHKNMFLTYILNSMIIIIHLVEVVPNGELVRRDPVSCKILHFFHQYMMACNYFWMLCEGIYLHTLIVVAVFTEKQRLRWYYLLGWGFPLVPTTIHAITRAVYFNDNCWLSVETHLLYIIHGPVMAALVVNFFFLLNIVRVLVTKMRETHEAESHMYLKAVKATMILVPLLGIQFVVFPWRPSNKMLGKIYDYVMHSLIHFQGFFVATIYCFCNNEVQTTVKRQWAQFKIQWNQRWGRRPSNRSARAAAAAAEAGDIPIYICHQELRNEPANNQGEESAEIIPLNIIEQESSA
T1 sequence (looked up) 2: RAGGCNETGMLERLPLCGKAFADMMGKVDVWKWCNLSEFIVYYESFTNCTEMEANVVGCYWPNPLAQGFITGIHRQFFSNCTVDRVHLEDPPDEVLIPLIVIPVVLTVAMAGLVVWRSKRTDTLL

B1: N^α1-[2-[2-[2-[[2-[2-[2-[[(4S)-4-carboxy-4-(19-carboxynonadecanoylamino)butanoyl]amino]ethoxy]ethoxy]acetyl]amino]ethoxy]ethoxy]acetyl]-[Glu14,Arg17,Pro21,Pro27 … (peptide)
peptide: KCNTATCATQRLAEFLRHSSPNFGAIPSSTNVGSNTY
modifications: C20 diacid-gGlu-2xOEG on alpha amino group of N-terminal Lys 1; Cys2-Cys7 disulfide; C-terminal amide
notes: also called 19; compound 19
B2: N^α1-[(4S)-4-carboxy-4-(19-carboxynonadecanoylamino)butanoyl]-[Arg17,Pro21,Pro27,Arg34]-h-amylin (peptide)
peptide: B1 peptide with E14N, S34R
modifications: C20 diacid-gGlu on alpha amino group of N-terminal Lys 1; Cys2-Cys7 disulfide; C-terminal amide
notes: also called 39; compound 39
B3: N^α1-[(4S)-4-carboxy-4-(19-carboxynonadecanoylamino)butanoyl]-[Asp14,Arg17,Pro21,Pro27,Pro37]-h-amylin (peptide)
peptide: {C20 diacid-γGlu}-KCNTATCATQRLADFLRHSSPNFGAIPSSTNVGSNTP-NH2
modifications: disulfide 2-7
SMILES: CC[C@H](C)[C@H](NC(=O)[C@H](C)NC(=O)CNC(=O)[C@H](Cc1ccccc1)NC(=O)[C@H](CC(N)=O)NC(=O)[C@@H]1CCCN1C(=O)[C@H](CO)NC(=O)[C@H](CO)NC(=O)[C@H](Cc1c[nH]cn1)NC(=O)[C@H](CCCNC(=N)N)NC(=O)[C@H](CC(C)C)NC(=O)[C@H](Cc1ccccc1)NC(=O)[C@H](CC(=O)O)NC(=O)[C@H](C)NC(=O)[C@H](CC(C)C)NC(=O)[C@H](CCCNC(=N)N)NC(=O)[C@H](CCC(N)=O)NC(=O)[C@@H](NC(=O)[C@H](C)NC(=O)[C@@H]1CSSC[C@H](NC(=O)[C@H](CCCCN)NC(=O)CC[C@H](NC(=O)CCCCCCCCCCCCCCCCCCC(=O)O)C(=O)O)C(=O)N[C@@H](CC(N)=O)C(=O)N[C@@H]([C@@H](C)O)C(=O)N[C@@H](C)C(=O)N[C@@H]([C@@H](C)O)C(=O)N1)[C@@H](C)O)C(=O)N1CCC[C@H]1C(=O)N[C@@H](CO)C(=O)N[C@@H](CO)C(=O)N[C@H](C(=O)N[C@@H](CC(N)=O)C(=O)N[C@H](C(=O)NCC(=O)N[C@@H](CO)C(=O)N[C@@H](CC(N)=O)C(=O)N[C@H](C(=O)N1CCC[C@H]1C(N)=O)[C@@H](C)O)C(C)C)[C@@H](C)O
notes: also called 10; compound 10
B4: N^α1-[(4S)-4-carboxy-4-(19-carboxynonadecanoylamino)butanoyl]-[Glu14,Arg17,Pro21,Pro25,Pro28,Pro29]-h-amylin (peptide)
peptide: {C20 diacid-γGlu}-KCNTATCATQRLAEFLRHSSPNFGPILPPTNVGSNTY-NH2
modifications: disulfide 2-7
SMILES: CC[C@H](C)[C@H](NC(=O)[C@@H]1CCCN1C(=O)CNC(=O)[C@H](Cc1ccccc1)NC(=O)[C@H](CC(N)=O)NC(=O)[C@@H]1CCCN1C(=O)[C@H](CO)NC(=O)[C@H](CO)NC(=O)[C@H](Cc1c[nH]cn1)NC(=O)[C@H](CCCNC(=N)N)NC(=O)[C@H](CC(C)C)NC(=O)[C@H](Cc1ccccc1)NC(=O)[C@H](CCC(=O)O)NC(=O)[C@H](C)NC(=O)[C@H](CC(C)C)NC(=O)[C@H](CCCNC(=N)N)NC(=O)[C@H](CCC(N)=O)NC(=O)[C@@H](NC(=O)[C@H](C)NC(=O)[C@@H]1CSSC[C@H](NC(=O)[C@H](CCCCN)NC(=O)CC[C@H](NC(=O)CCCCCCCCCCCCCCCCCCC(=O)O)C(=O)O)C(=O)N[C@@H](CC(N)=O)C(=O)N[C@@H]([C@@H](C)O)C(=O)N[C@@H](C)C(=O)N[C@@H]([C@@H](C)O)C(=O)N1)[C@@H](C)O)C(=O)N[C@@H](CC(C)C)C(=O)N1CCC[C@H]1C(=O)N1CCC[C@H]1C(=O)N[C@H](C(=O)N[C@@H](CC(N)=O)C(=O)N[C@H](C(=O)NCC(=O)N[C@@H](CO)C(=O)N[C@@H](CC(N)=O)C(=O)N[C@H](C(=O)N[C@@H](Cc1ccc(O)cc1)C(N)=O)[C@@H](C)O)C(C)C)[C@@H](C)O
notes: also called compound 6
B5: N^α1-[(4S)-4-carboxy-4-(19-carboxynonadecanoylamino)butanoyl]-[Glu14,Arg17,Pro21,Pro25,Pro28,Pro29,Pro37]-h-amylin (peptide)
peptide: {C20 diacid-γGlu}-KCNTATCATQRLAEFLRHSSPNFGPILPPTNVGSNTP-NH2
modifications: disulfide 2-7
SMILES: CC[C@H](C)[C@H](NC(=O)[C@@H]1CCCN1C(=O)CNC(=O)[C@H](Cc1ccccc1)NC(=O)[C@H](CC(N)=O)NC(=O)[C@@H]1CCCN1C(=O)[C@H](CO)NC(=O)[C@H](CO)NC(=O)[C@H](Cc1c[nH]cn1)NC(=O)[C@H](CCCNC(=N)N)NC(=O)[C@H](CC(C)C)NC(=O)[C@H](Cc1ccccc1)NC(=O)[C@H](CCC(=O)O)NC(=O)[C@H](C)NC(=O)[C@H](CC(C)C)NC(=O)[C@H](CCCNC(=N)N)NC(=O)[C@H](CCC(N)=O)NC(=O)[C@@H](NC(=O)[C@H](C)NC(=O)[C@@H]1CSSC[C@H](NC(=O)[C@H](CCCCN)NC(=O)CC[C@H](NC(=O)CCCCCCCCCCCCCCCCCCC(=O)O)C(=O)O)C(=O)N[C@@H](CC(N)=O)C(=O)N[C@@H]([C@@H](C)O)C(=O)N[C@@H](C)C(=O)N[C@@H]([C@@H](C)O)C(=O)N1)[C@@H](C)O)C(=O)N[C@@H](CC(C)C)C(=O)N1CCC[C@H]1C(=O)N1CCC[C@H]1C(=O)N[C@H](C(=O)N[C@@H](CC(N)=O)C(=O)N[C@H](C(=O)NCC(=O)N[C@@H](CO)C(=O)N[C@@H](CC(N)=O)C(=O)N[C@H](C(=O)N1CCC[C@H]1C(N)=O)[C@@H](C)O)C(C)C)[C@@H](C)O
notes: also called compound 4
B6: N^α1-[2-[2-[2-[[2-[2-[2-[[(4S)-4-carboxy-4-(19-carboxynonadecanoylamino)butanoyl]amino]ethoxy]ethoxy]acetyl]amino]ethoxy]ethoxy]acetyl]-[Glu14,Arg17,Pro21,Pro27 … (peptide)
peptide: {C20 diacid-γGlu-AEEA-AEEA}-KCNTATCATQRLAEFLRHSSPNFGAIPSSTNVGSNTP-NH2
modifications: disulfide 2-7
SMILES: CC[C@H](C)[C@H](NC(=O)[C@H](C)NC(=O)CNC(=O)[C@H](Cc1ccccc1)NC(=O)[C@H](CC(N)=O)NC(=O)[C@@H]1CCCN1C(=O)[C@H](CO)NC(=O)[C@H](CO)NC(=O)[C@H](Cc1c[nH]cn1)NC(=O)[C@H](CCCNC(=N)N)NC(=O)[C@H](CC(C)C)NC(=O)[C@H](Cc1ccccc1)NC(=O)[C@H](CCC(=O)O)NC(=O)[C@H](C)NC(=O)[C@H](CC(C)C)NC(=O)[C@H](CCCNC(=N)N)NC(=O)[C@H](CCC(N)=O)NC(=O)[C@@H](NC(=O)[C@H](C)NC(=O)[C@@H]1CSSC[C@H](NC(=O)[C@H](CCCCN)NC(=O)COCCOCCNC(=O)COCCOCCNC(=O)CC[C@H](NC(=O)CCCCCCCCCCCCCCCCCCC(=O)O)C(=O)O)C(=O)N[C@@H](CC(N)=O)C(=O)N[C@@H]([C@@H](C)O)C(=O)N[C@@H](C)C(=O)N[C@@H]([C@@H](C)O)C(=O)N1)[C@@H](C)O)C(=O)N1CCC[C@H]1C(=O)N[C@@H](CO)C(=O)N[C@@H](CO)C(=O)N[C@H](C(=O)N[C@@H](CC(N)=O)C(=O)N[C@H](C(=O)NCC(=O)N[C@@H](CO)C(=O)N[C@@H](CC(N)=O)C(=O)N[C@H](C(=O)N1CCC[C@H]1C(N)=O)[C@@H](C)O)C(C)C)[C@@H](C)O
notes: also called 20; compound 20
B7: N^α1-[(4S)-4-carboxy-4-(19-carboxynonadecanoylamino)butanoyl]-[Arg17,Pro21,Pro27,His34]-h-amylin (peptide)
peptide: B1 peptide with E14N, S34H
modifications: C20 diacid-gGlu on alpha amino group of N-terminal Lys 1; Cys2-Cys7 disulfide; C-terminal amide
notes: also called 40; compound 40
B8: N^α1-[(4S)-4-carboxy-4-(19-carboxynonadecanoylamino)butanoyl]-[Arg17,Pro21,Pro27,Pro31,Glu35]-h-amylin (peptide)
peptide: {C20 diacid-γGlu}-KCNTATCATQRLANFLRHSSPNFGAIPSSTPVGSETY-NH2
modifications: disulfide 2-7
SMILES: CC[C@H](C)[C@H](NC(=O)[C@H](C)NC(=O)CNC(=O)[C@H](Cc1ccccc1)NC(=O)[C@H](CC(N)=O)NC(=O)[C@@H]1CCCN1C(=O)[C@H](CO)NC(=O)[C@H](CO)NC(=O)[C@H](Cc1c[nH]cn1)NC(=O)[C@H](CCCNC(=N)N)NC(=O)[C@H](CC(C)C)NC(=O)[C@H](Cc1ccccc1)NC(=O)[C@H](CC(N)=O)NC(=O)[C@H](C)NC(=O)[C@H](CC(C)C)NC(=O)[C@H](CCCNC(=N)N)NC(=O)[C@H](CCC(N)=O)NC(=O)[C@@H](NC(=O)[C@H](C)NC(=O)[C@@H]1CSSC[C@H](NC(=O)[C@H](CCCCN)NC(=O)CC[C@H](NC(=O)CCCCCCCCCCCCCCCCCCC(=O)O)C(=O)O)C(=O)N[C@@H](CC(N)=O)C(=O)N[C@@H]([C@@H](C)O)C(=O)N[C@@H](C)C(=O)N[C@@H]([C@@H](C)O)C(=O)N1)[C@@H](C)O)C(=O)N1CCC[C@H]1C(=O)N[C@@H](CO)C(=O)N[C@@H](CO)C(=O)N[C@H](C(=O)N1CCC[C@H]1C(=O)N[C@H](C(=O)NCC(=O)N[C@@H](CO)C(=O)N[C@@H](CCC(=O)O)C(=O)N[C@H](C(=O)N[C@@H](Cc1ccc(O)cc1)C(N)=O)[C@@H](C)O)C(C)C)[C@@H](C)O
notes: also called 28; compound 28
B9: N^α1-[(4S)-4-carboxy-4-(19-carboxynonadecanoylamino)butanoyl]-[Arg17,Pro21,Pro27,Glu35]-h-amylin (peptide)
peptide: B1 peptide with E14N, N35E
modifications: C20 diacid-gGlu on alpha amino group of N-terminal Lys 1; Cys2-Cys7 disulfide; C-terminal amide
notes: also called 23; compound 23

What follows are binders tested against T1, human amylin receptor (amylin 3(a) …) (assay: SPA displacement of 125I-rat amylin, hAmylin 3(a) receptor membranes).
Experimental: The binding assay was performed using scintillation proximity assay (SPA) beads (RPNQ0001) from PerkinElmer and cell membranes from the Amylin 3(a)/CRE-luc cells (as described in Assay (II)) were used. Membranes were prepared in the following way; the cells were rinsed with PBS and incubated with Versene for approximately 5 min before harvesting. The cells were flushed with PBS and the cell-suspension was centrifuged for 5 min at 1000 rpm. Cells were homogenized (ultrathurrax) in a buffer containing 20 mM Na-HEPES and 10 mM EDTA (pH 7.4) and centrifuged at 20.000 rpm for 15 min. The resulting pellet was resuspended, homogenized and centrifuged (20.000 rpm, 15 min) in a buffer containing 20 mM Na-HEPES and 0.1 mM EDTA (pH 7.4, buffer 2). The resulting pellet was resuspended in buffer 2 and protein concentration was measured (BCA protein Assay, Pierce). The homogenate was kept cold during the whole procedure. The membranes were kept at −80° C. until use. The assay was performed in a 384 well Optiplate (PerkinElmer) in a total volume of 40 ul. Membranes were mixed with SPA beads. Final concentration of membranes 35 ng/μL final and SPA beads was 0.05 mg/well. Test-compounds were dissolved in DMSO and further diluted in assay buffer (50 mM Hepes, pH 7.4, 1 mM CaCl2, 5 mM MgCl₂, 0.1% OA and 0.02% Tween20). […] The final mixture was incubated with shaking at 400 rpm for 120 min at 25° C. prior to centrifugation (1500 rpm, 10 min). Samples were analyzed on TopCounter™ (Packard). The IC₅₀ was calculated using (one site binding competition analysis) GraphPad Prism5 as a measure of receptor affinity.

IC50 [nM]	Binder
0.556	B1
0.665	B2
0.082	B3
0.996	B4
0.321	B5
0.217	B6
0.549	B7
0.61	B8
0.871	B9
